Like-named read-outs stand apart in the source and are kept apart here.
Assays:
S2hlx-Ex37 = target: T1, S2hlx-Ex37; assay: SPR, single cycle; mAb captured on Protein A, epitope scaffold as analyte
T1 chain: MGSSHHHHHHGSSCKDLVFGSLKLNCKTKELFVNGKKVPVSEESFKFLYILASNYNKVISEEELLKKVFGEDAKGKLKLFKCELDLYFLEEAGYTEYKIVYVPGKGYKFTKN

S2hlx-Ex54 = target: T2, S2hlx-Ex54; assay: as above
T2 chain: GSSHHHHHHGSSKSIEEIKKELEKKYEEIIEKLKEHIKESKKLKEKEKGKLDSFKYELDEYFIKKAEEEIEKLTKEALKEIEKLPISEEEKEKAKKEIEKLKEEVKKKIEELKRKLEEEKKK

S2hlx-Ex46 = target: T3, S2hlx-Ex46; assay: as above
T3 epitope scaffold: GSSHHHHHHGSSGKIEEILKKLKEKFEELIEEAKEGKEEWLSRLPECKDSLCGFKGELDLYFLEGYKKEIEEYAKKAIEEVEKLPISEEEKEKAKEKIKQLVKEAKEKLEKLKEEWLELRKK

S2hlx-Ex15 = target: T4, S2hlx-Ex15; assay: SPR, mAb captured, antigen as analyte
T4 chain: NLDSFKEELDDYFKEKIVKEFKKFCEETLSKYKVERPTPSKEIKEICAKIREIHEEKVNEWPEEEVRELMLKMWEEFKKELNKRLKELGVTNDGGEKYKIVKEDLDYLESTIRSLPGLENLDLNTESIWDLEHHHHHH

S2hlx-Ex17 = target: T5, S2hlx-Ex17; assay: SPR, mAb captured, antigen as analyte
T5 chain: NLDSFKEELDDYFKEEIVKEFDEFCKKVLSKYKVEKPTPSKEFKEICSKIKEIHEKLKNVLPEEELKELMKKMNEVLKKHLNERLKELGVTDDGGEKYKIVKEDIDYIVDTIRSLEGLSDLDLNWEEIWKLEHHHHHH

S2hlx-Ex20 = target: T6, S2hlx-Ex20; assay: SPR, mAb captured, antigen as analyte
T6 chain: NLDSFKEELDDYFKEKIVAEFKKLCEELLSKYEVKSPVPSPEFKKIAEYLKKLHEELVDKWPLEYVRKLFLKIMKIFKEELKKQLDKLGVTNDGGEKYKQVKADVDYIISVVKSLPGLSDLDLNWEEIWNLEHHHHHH

S2hlx-14 [1] = assay: SPR, mAb captured, antigen as analyte
S2hlx-4 = assay: SPR, mAb captured, antigen as analyte
S2hlx-1 [2] = target: T7, S2hlx-1; assay: SPR, mAb captured, antigen as analyte
T7 epitope scaffold: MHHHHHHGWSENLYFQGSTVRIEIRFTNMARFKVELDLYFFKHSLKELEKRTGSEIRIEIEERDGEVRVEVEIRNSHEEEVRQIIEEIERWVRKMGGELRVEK

S2hlx-13 [3] = target: T8, S2hlx-13; assay: SPR, mAb captured, antigen as analyte
T8 epitope scaffold: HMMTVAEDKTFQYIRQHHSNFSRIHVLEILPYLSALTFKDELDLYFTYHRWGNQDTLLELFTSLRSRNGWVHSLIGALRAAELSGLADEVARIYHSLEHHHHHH

S2hlx-8 [4] = target: T9, S2hlx-8; assay: SPR, mAb captured, antigen as analyte
T9 epitope scaffold: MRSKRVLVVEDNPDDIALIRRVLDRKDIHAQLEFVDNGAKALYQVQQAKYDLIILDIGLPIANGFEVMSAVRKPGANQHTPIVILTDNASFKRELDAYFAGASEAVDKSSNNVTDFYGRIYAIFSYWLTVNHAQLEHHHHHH

S2hlx-14 [5] = assay: SPR, mAb captured, antigen as analyte; remark: listed apart in the source
S2hlx-1 [6] = target: T7, S2hlx-1; assay: SPR, mAb captured, antigen as analyte
S2hlx-13 [7] = target: T8, S2hlx-13; assay: SPR, mAb captured, antigen as analyte
S2hlx-8 [8] = target: T9, S2hlx-8; assay: SPR, mAb captured, antigen as analyte
S2hlx-15 = target: T10, S2hlx-15; assay: ELISA, coated antigen, mAb titrated
T10 chain: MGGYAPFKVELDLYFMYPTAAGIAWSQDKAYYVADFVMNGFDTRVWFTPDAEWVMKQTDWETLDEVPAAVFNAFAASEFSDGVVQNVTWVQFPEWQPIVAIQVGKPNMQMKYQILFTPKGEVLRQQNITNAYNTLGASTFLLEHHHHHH

CC19 LA = assay: ELISA, coated antigen, mAb titrated
S2hlx-Ex8-Trx F1148A = assay: ELISA; antigen coated, mAb titrated
HKU-1 spike (2P) = HKU-1 spike (2P) (human coronavirus HKU1); assay: ELISA, coated spike, mAb titrated
S2hlx-Ex3 = target: T11, S2hlx-Ex3; assay: ELISA, coated antigen, mAb titrated
T11 construct: backbone grafting design
T11 chain: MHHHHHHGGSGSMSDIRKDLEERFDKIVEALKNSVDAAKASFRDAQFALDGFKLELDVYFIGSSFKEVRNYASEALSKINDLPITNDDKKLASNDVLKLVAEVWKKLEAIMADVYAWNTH

S2hlx-Ex2 = target: T12, S2hlx-Ex2; assay: ELISA, coated antigen, mAb titrated
T12 construct: backbone grafting design
T12 chain: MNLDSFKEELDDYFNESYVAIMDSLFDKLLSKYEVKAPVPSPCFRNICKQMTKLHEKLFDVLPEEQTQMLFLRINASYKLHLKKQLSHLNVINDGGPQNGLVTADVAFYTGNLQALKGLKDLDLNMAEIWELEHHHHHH

S2hlx-Ex4 = target: T13, S2hlx-Ex4; assay: ELISA, coated antigen, mAb titrated
T13 construct: backbone grafting design
T13 chain: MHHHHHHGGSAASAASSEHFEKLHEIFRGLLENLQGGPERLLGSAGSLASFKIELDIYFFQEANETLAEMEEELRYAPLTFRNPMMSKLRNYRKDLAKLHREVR

Sequence of S2hlx-4 (chain, as listed by the source): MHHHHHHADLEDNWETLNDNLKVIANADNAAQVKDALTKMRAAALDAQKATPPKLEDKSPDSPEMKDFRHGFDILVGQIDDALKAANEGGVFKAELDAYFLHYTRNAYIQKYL

B1: S2P6 mAb (antibody, V domains shown)
VH: EVQLVQSGAEVKKPGASVKVSCKASGYTFTSQYMHWVRQAPGQGLEWIGIINPSGVHTSYAQKFQGRVTLTRDTSTSTLYMELSSLRSEDTAVYYCARGSPKGAFDYWGQGTLVTVSS
VL: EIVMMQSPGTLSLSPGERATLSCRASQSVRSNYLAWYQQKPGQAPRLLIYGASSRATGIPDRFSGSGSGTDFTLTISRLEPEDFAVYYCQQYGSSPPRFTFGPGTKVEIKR
B1 was tested, and the Kd (S2hlx-Ex37) was 664 nM, the Kd (S2hlx-Ex54) was 45.6 nM and the Kd (S2hlx-Ex46) was 296 nM. For the same binder, the Kd (S2hlx-Ex15) was 6 nM, the Kd (S2hlx-Ex17) was 29.6 nM and the Kd (S2hlx-Ex20) was 10.7 nM. For the same binder, the Kd (S2hlx-14 [1]) was 30 nM, the Kd (S2hlx-4) was 47.7 nM and the Kd (S2hlx-1 [2]) was 52.8 nM. The Kd (S2hlx-13 [3]) was 83 nM, the Kd (S2hlx-8 [4]) was 63 nM and the Kd (S2hlx-14 [5]) was 30 nM. It also gave a Kd (S2hlx-1 [6]) of 52.8 nM, a Kd (S2hlx-13 [7]) of 83 nM and a Kd (S2hlx-8 [8]) of 63 nM. For the same binder, the “EC50 (read off the curve)” value (S2hlx-15) was about 0.1 µg/mL, the “EC50 (read off the curve)” value (CC19 LA) was about 0.02 µg/mL and the “EC50 (read off the curve)” value (S2hlx-Ex8-Trx F1148A) was about 0.04 µg/mL. The “EC50 (read off the curve)” value (HKU-1 spike (2P)) was about 0.3 µg/mL, the “EC50 (read off the curve)” value (S2hlx-Ex3) was about 0.06 µg/mL and the “EC50 (read off the curve)” value (S2hlx-Ex2) was about 0.07 µg/mL. The “EC50 (read off the curve)” value (S2hlx-Ex4) was about 0.07 µg/mL.

Reference: patent publication US20240285753A1 (DUKE UNIVERSITY, published 2024)
